The target of one data set is T1, substrate B.
T1 chain: KKWLGRVPGGPV

For another data set, the target named is T2, substrate A.
T2 chain: LLWLGRVVGGPV

B1: Variant 2 (protein)
chain: IVGGYNCEENSVPYQVSLNSGYHFCGGSLINEQWVVSAGHCYNGRDLEKSRIQVRLGEHNIEVLEGNEQFINAAKIIRHPQYDRKTLNNDIMLIKLSSRAVINARVSTISLPTAPPATGTKCLISGWGNVRGTWTASSGADYPDELQCLDAPVLSQAKCEASYPGKITSNMFCVGFLEGGKDSCQGDSGGPVVCNGQLQGVVSWGDGCAQKNKPGVYTKVYNYVKWIKNTIAANS
With B1, the “rate constants of the proteolytic digestion (proportional to kcat/KM), relative to human trypsin I” value (shortened to “rate constants … relative to human trypsin I”) in the data set with substrate B is “the specific activity of variants 1 and 2 is shifted (SEQ ID NOs: 2 and 3, respectively) towards substrate B”.

B2: Variant 1 (protein)
chain: IVGGYNCEENSVPYQVSLNSGYHFCGGSLINEQWVVSAGHCYDAVGRDKSRIQVRLGEHNIEVLEGNEQFINAAKIIRHPQYDRKTLNNDIMLIKLSSRAVINARVSTISLPTAPPATGTKCLISGWGNTITNSTASSGADYPDELQCLDAPVLSQAKCEASYPGKITSNMFCVGFLEGGKDSCQGDSGGPVVCNGQLQGVVSWGDGCAQKNKPGVYTKVYNYVKWIKNTIAANS
In the case of B2, in the data set with substrate B, the “rate constants … relative to human trypsin I” value was “the specific activity of variants 1 and 2 is shifted (SEQ ID NOs: 2 and 3, respectively) towards substrate B”.

B3: Variant 3 (protein)
chain: IVGGYNCEENSVPYQVSLNSGYHFCGGSLINEQWVVSAGHCYAATNGDKSRIQVRLGEHNIEVLEGNEQFINAAKIIRHPQYDRKTLNNDIMLIKLSSRAVINARVSTISLPTAPPATGTKCLISGWGNRKDFWTASSGADYPDELQCLDAPVLSQAKCEASYPGKITSNMFCVGFLEGGKDSCQGDSGGPVVCNGQLQGVVSWGDGCAQKNKPGVYTKVYNYVKWIKNTIAANS
As to B3, the “rate constants … relative to human trypsin I” value with substrate A and in the data set with substrate B was “serves as a negative control with similar activities as the human trypsin I” in each case.

For the origin of these results see US20050175581.
